For one assay, the target named is T1, NLS-pMag-CreC.
T1 chain: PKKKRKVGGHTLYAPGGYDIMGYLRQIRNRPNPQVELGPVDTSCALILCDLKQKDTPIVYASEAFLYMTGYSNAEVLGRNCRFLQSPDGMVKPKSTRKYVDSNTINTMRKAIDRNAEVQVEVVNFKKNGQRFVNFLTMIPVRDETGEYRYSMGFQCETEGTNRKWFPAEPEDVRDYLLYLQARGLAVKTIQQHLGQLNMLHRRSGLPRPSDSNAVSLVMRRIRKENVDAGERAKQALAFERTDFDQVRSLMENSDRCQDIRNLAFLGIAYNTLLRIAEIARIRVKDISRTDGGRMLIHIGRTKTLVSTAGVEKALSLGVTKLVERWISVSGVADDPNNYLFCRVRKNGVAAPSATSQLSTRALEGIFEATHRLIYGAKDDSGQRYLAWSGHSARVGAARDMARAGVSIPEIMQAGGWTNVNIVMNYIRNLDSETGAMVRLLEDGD
Nature of the assay: cell-based or functional assay.

The target of assay [1] is T2, CD38 on CD38+ Toledo Target cells (UniProt P28907 1-300, limits assumed).
T2 construct: whole, on cells
The assay is described as follows: flow cytometry, Jurkat T cells carrying the receptor with Toledo Target cells.

B1: ERT2-CreN-nMag (other)
chain: MAGDMRAANLWPSPLMIKRSKKNSLALSLTADQMVSALLDAEPPILYSEYDPTRPFSEASMMGLLTNLADRELVHMINWAKRVPGFVDLTLHDQVHLLECAWLEILMIGLVWRSMEHPVKLLFAPNLLLDRNQGKCVEGMVEIFDMLLATSSRFRMMNLQGEEFVCLKSIILLNSGVYTFLSSTLKSLEEKDHIHRVLDKITDTLIHLMAKAGLTLQQQHQRLAQLLLILSHIRHMSNKGMEHLYSMKCKNVVPLYDLLLEAADAHRLHAPTSRGGASVEETDQSHLATAGSTSSHSLQKYYITGEAEGFPATAVDNLLTVHQNLPALPVDATSDEVRKNLMDMFRDRQAFSEHTWKMLLSVCRSWAAWCKLNGTHTLYAPGGYDIMGYLDQIGNRPNPQVELGPVDTSCALILCDLKQKDTPIVYASEAFLYMTGYSNAEVLGRNCRFLQSPDGMVKPKSTRKYVDSNTINTMRKAIDRNAEVQVEVVNFKKNGQRFVNFLTMIPVRDETGEYRYSMGFQCETE
B1: the “fold increase in recombined TamPA-Cre+ CAR Reporter Jurkat T cells, Light+4-OHT against Dark+4-OHT” value in the assay with NLS-pMag-CreC came to 27.1 fold.

B2: myc-α-CD38-Receptor (receptor)
chain: SEQKLISEEDLDIQLTQSSSSFSVSLGDRVTITCKASEDIYNRLAWYQQKPGNAPRLLISGATSLETGVPSRFSGSGSGKDYTLSITSLQTEDVATYYCQQYWSTPTFGGGTKLEIKRADAAPTVSIFPPSGGGGSGGGGSGGGGSGGGGSQVQLKQSGPSLVQPSQRLSITCTVSGFSLISYGVHWVRQSPGKGLEWLGVIWRGGSTDYNAAFMSRLSITKDNSKSQVFFKMNSLQADDTAIYFCAKTLITTGYAMDYWGQGTSVTVSSAAAIEVMYPPPYLDNEKSNGTIIHVKGKHLCPSPLFPGPSKPFWVLVVVGGVLACYSLLVTVAFIIFWVRSKRS
notes: Non-signalling anchoring receptor with myc tag, expressed on Jurkat T cells; also called c-myc-tagged α-CD38 Receptor
Turning to B2, the binding result in assay [1] is reported as “binds”.

Values taken from US20230036060A1 (University of California, published 2023).
